Experimental findings from publication PMC4530586, “STIL binding to Polo-box 3 of PLK4 regulates centriole duplication” (eLife, 2015) are described below.

For orientation: Kd means the constant that tells how readily two partners part at equilibrium. In general, stoichiometry N refers to a count of units in the complex or per binding partner.

The assay concerns the target T1, human PLK4-PB3 (884–970), recombinant (human, UniProt O00444 884-970).
T1 construct: PLK4, human, residues 884–970 (Polo-box 3); isotope-labelled (2H, 15N, 13C) samples were used for NMR; also called Polo-box 3; source: E. coli BL21 DE3, purified (nickel resin, TEV cleavage, Superdex75 SEC); not shown: thioredoxin, N-terminal, cleaved; His6, N-terminal, cleaved
T1 sequence (looked up): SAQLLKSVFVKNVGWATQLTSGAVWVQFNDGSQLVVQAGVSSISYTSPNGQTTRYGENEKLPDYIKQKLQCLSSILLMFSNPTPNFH
The assay is described as follows: ITC; synthetic STIL-CC peptide (414 µM) titrated into recombinant PB3 (35.5 µM); 50 mM Hepes pH 8.0, 150 mM NaCl, 1 mM TCEP; 25°C; 30 injections of 10 µl; one-site binding model. Particulars: both partners purified.

B1: synthetic STIL-CC peptide (peptide, UniProt Q15468 720-751, looked up)
peptide: PDAYRFLTEQDRQLRLLQAQIQRLLEAQSLMP
notes: also called synthetic peptide corresponding to STIL-CC; source: synthetic peptide
On to B1, for which the equilibrium dissociation constant (Kd) was found to be 280 ± 60 nM and the “stoichiometry N” value worked out at 1.
